Results taken from patent US20240058441A1 (published 2024).

B1: TKDm molecule (control molecule of TKD with mutated CTM, CTMmt, incapable of being recognized by lysosome) (VHH)
VHH: DVQLQESGGGLVQAGGSLRLSCVASGRTFSTYPTGWFRQAPGKEREFVARINLSGGITNYADSVKGRFTISRDNAKNTVYLQMNSLKPEDTAVYYCGGGSTTWAGGIPTNFDYWGQGTQVTVSS
B2: TKD molecule (nanobody-mediated KRas protein targeting degradation system; fusion protein BR2 - anti-KRas nanobody VHH - CTM) (VHH)
VHH: B1 VHH

Target: KRas protein (purified) (UniProt P01116 1-186)
Test: SPR

Binder | Kd
B1 | 1.09 nM
B2 | 7.24 nM
